Measured values reported in US20250281630A1 (TORAY INDUSTRIES, published 2025).

T1: human CAPRIN-1 on the cell membrane surface of human cancer cells (human, UniProt Q14444 2-709)
T1 construct: whole, on cells
T1 sequence (looked up): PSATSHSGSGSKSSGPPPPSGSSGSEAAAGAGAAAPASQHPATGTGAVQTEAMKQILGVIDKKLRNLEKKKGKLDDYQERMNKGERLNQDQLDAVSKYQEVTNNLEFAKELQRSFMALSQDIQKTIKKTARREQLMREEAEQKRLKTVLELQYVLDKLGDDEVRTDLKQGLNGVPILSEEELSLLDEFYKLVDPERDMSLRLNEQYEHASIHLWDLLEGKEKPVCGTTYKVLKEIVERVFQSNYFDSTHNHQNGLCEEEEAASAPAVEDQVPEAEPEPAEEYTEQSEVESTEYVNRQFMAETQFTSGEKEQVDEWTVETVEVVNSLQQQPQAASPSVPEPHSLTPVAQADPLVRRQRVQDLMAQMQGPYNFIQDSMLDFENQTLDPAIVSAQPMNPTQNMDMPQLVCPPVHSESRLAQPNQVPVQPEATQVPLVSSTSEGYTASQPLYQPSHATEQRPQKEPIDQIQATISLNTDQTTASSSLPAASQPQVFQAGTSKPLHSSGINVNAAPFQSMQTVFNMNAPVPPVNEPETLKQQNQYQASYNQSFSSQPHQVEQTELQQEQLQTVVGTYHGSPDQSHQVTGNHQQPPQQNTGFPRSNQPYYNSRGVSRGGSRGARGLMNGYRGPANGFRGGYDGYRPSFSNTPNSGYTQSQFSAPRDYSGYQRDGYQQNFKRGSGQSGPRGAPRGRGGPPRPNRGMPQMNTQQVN

T2: mouse CAPRIN-1 on mouse cancer cells (mouse, UniProt Q60865 2-707)
T2 construct: whole, on cells
T2 sequence (looked up): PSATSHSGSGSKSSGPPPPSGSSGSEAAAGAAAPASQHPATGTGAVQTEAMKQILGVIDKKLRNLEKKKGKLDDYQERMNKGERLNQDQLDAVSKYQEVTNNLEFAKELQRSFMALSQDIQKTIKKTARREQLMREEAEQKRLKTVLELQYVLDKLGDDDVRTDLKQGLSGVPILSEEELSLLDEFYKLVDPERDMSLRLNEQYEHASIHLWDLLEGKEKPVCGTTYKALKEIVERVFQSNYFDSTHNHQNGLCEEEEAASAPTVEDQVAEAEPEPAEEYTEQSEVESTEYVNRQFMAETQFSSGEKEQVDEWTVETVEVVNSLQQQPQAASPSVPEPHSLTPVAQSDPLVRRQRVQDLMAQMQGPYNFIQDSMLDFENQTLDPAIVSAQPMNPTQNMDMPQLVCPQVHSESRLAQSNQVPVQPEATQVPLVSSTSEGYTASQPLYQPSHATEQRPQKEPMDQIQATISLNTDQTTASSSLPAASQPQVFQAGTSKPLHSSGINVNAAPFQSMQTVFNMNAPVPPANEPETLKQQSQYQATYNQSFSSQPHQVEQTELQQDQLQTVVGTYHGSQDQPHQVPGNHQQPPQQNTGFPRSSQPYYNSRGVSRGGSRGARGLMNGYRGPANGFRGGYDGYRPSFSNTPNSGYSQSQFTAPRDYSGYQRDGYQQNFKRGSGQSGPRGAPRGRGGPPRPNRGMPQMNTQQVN


Tests used:
[1] = molecular target: T1, human CAPRIN-1 on the cell membrane …; assay: flow cytometry, BT474 cells
Experimental: The tube was left at 4° C. for 1 hour. After washing with PBS, Alexa 488-labeled anti-rabbit IgG (H+L) diluted 100-fold with PBS(-) containing 0.5% FBS (0.5% FBS-PBS(-)) was added thereto, and the tube was left at 4° C. for 1 hour. After washing with 0.5% FBS-PBS(-), the cells were reacted with BD Horizon Fixable Viability Stain (FVS) Reagents (FVS450, Becton, Dickinson and Company) to stain dead cells, and the fluorescence intensity was then measured using FACSFortessa™ (Becton, Dickinson and Company).

[2] = molecular target: T2, mouse CAPRIN-1 on mouse cancer cells; assay: flow cytometry, Renca and 4T1 cells

| Binder | binding result [1] | binding result [2] |
| --- | --- | --- |
| Conjugate 122 (antibody, V domains shown, human IgG1 constant regions; also called conjugate with MMAE using humanized antibody #36) VH: EVQLVESGGGLVQPGGSLRLSCAASGFSLSSHSLGWVRQAPGKGLEWIGDIRSGGSAYYANWAKGRFTISRDNSKNTLYLQMNSLRAEDTAVYYCTRTNGPSDLTNRLDLWGQGTLVTVSS VL: QVLTQSPSSLSASVGDRVTINCQASQSLYNNENLAWFQQKPGKVPKRLIYGASTLASGVSSRFSGSGSGTEFTLTISSLQCEDFAIYYCLGEFSCGSADCFAFGGGTKVEIK | binds | binds |
| Conjugate 124 (antibody, V domains shown, human IgG1 constant regions; also called conjugate with MMAE using humanized antibody #38) VH: EVQLVESGGGLVQPGGSLRLSCAASGFSLSSHSLGWVRQAPGKGLEWIGDIRSGGSAYYANWAKGRFTISRDNSKNTLYLQMNSLRAEDTAVYYCTRTNGPSDLTNRLDLWGQGTLVTVSS VL: EQVLTQSPSSLSASVGDRVTINCQASQSLYNNENLAWFQQKPGKVPKRLIYGASTLASGVSSRFSGSGSGTEFTLTISNLQPEDFAIYYCLGEFSCGSADCFAFGGGTKVEIK | binds | binds |
| Conjugate 99 (antibody, V domains shown, human IgG1 constant regions; also called conjugate with MMAE using humanized antibody #13) VH: GAELVRSGASVKMSCKASGYSFTDYNMYWVKQTPGQGLEWIGYIYPGNGGTNYNQKFKGKATLTADTSSSTAYMQISSLTSEDSAVYFCARDYDDGGYAMDYWGQGTTVTVSS VL: DIQMTQSPASLSASVGETVTITCRASGNIHNYLTWYQQKQGKSPQLLVYNAKTLADGVPSRFSGSGSGTQYSLKINRLQPEDFGSYYCQHFWNIPWTFGGGTKLNSR | binds | binds |

Other lines, results leading:

| binding result [1] | binding result [2] | Binder |
| --- | --- | --- |
| binds | binds | Conjugate 95 (antibody, V domains shown, human IgG1 constant regions; also called conjugate with MMAE using humanized antibody #9) VH: AVTLDESGGGLQTPGGALSLVCKASGFTFSGYDMLWVRQAPGKGLEWVAGIGSTGGGTDYGAAVKGRATISRDNGQSTVRLQLNNLRAEDTATYYCAKVAGGCNSGYCRDSPGSIDAWGHGTEVIVS VL: AVTQQPASVSANPGETVKITCSGGGSRNYYGWYQQKSPGSVPVTVIYYDDQRPSNIPSRFSGALSGSTSTLTITGVQADDEAVYFCGSADSNTYEGSFGAGTTLTVL |
| binds | binds | Conjugate 100 (antibody, V domains shown, human IgG1 constant regions; also called conjugate with MMAE using humanized antibody #14) VH: DAELVKPGASVKISCKASGYTFTDHSIHWVQQKPEQGLEWIGYISPGNGNIKYNEKFKGKATLTADKSSSTAYMQLNSLTSEDSAVYFCKRSLGRGGPYYFDYWGQGTTVTVSS VL: DIVLTQAAPSLPVTPGESVSISCRSSKSLLHSNGNTYLYWFLQRPGQSPQLLIYRMSNLASGVPDRFSGSGSGTAFTLRISRVEAEDVGVYYCMQHREYPVTFGSGPN |
